pKd: −log10 of the molar value.
Tests used:
[1] = biological target: eDEN1-FRET-D10N with the Wp2 domain replaced by Wp1; assay: FRET or BRET; intramolecular FRET of 50 nM sensor (ratio of emission at 475 nm to 525 nm, excitation 440 nm) titrated with free or precursor Nedd8, binding competes with the reporter interaction; PBS pH 7.4, 0.05% Brij-35, 0.2 mg/mL ovalbumin, 1 mM DTT; single-site fit
[2] = biological target: eDEN1-FRET-D10N construct lacking the C163A mutation; assay: as above
eDEN1-FRET-D10N = assay: as above
eDEN1-FRET = assay: as above
eDEN1-nanoBiT = assay: split reporter (BiFC, NanoBiT); intramolecular split nanoluciferase of purified eDEN1-nanoBiT, luminescence at 450 nm falls on binding; titration with the ligand; PBS pH 7.4, 0.2 mg/mL ovalbumin, 1 mM DTT, no Brij-35, 70 uM furimazine, 25 C, 96-well plate; single-site fit

| Substance | pKd [1] | pKd [2] | pKd (eDEN1-FRET-D10N) | pKd (eDEN1-FRET) | pKd (eDEN1-nanoBiT) | fold selectivity for free Nedd8 compared to precursor Nedd8 (eDEN1-FRET-D10N) [fold] |
| --- | --- | --- | --- | --- | --- | --- |
| free Nedd8 (from UniProt Q15843 1-76) (natural protein) | 5.22 | 4.30 | 6.49 | 5.12 | 5.49 | – |
| precursor Nedd8 (from UniProt Q15843 1-81) (natural protein) | – | – | – | – | 3.57 | 444 |
